Data on 18 compounds can be found in paper PMC9951308.

Starred links: 1 amine or outer side, 2 acyl side, 3 side chain; linkers in the order of their positions; H or OH if unused. Positions of bridges follow the written chain, without caps; N, C: chain ends. Residues, ends and D or L forms follow the SMILES beside them. TBMB = c1c(C[*:1])cc(C[*:3])cc1C[*:2]; mXylylene = c1cc(C[*:1])cc(C[*:2])c1

The series is described as follows: circular dichroism. The conditions noted are these: PBS 10 mM; pH 7.4; 25 °C; 10 uM. (Circular dichroism is widely used to follow secondary structure.)
`CC(=O)N[C@@H](C)C(=O)N[C@@H](C)C(=O)N[C@@H](C)C(=O)N[C@@H](C)C(=O)N[C@@H](CCCCN)C(=O)N[C@@H](C)C(=O)N[C@@H](C)C(=O)N[C@@H](C)C(=O)N[C@@H](C)C(=O)N[C@@H](CCCCN)C(=O)N[C@@H](Cc1c[nH]c2ccccc12)C(=O)N[C@H]1CSCc2cc3cc(c2)CSC[C@H](NC(=O)[C@H](C)NC(=O)[C@H](C)NC1=O)C(=O)N[C@@H](C)C(=O)N[C@H](C(N)=O)CSC3` (Ac-AAAAKAAAAKWCAACAC-NH2; linker 12-15-17 via TBMB): the helicity was 33%.

In turn, `CC(=O)N[C@@H](C)C(=O)N[C@@H](C)C(=O)N[C@@H](C)C(=O)N[C@@H](C)C(=O)N[C@@H](CCCCN)C(=O)N[C@@H](C)C(=O)N[C@@H](C)C(=O)N[C@@H](C)C(=O)N[C@@H](C)C(=O)N[C@@H](CCCCN)C(=O)N[C@@H](Cc1c[nH]c2ccccc12)C(=O)N[C@H]1CSCc2cc3cc(c2)CSC[C@H](NC(=O)[C@H](C)NC(=O)[C@H](C)NC1=O)C(=O)NCC(=O)N[C@H](C(N)=O)CSC3` (Ac-AAAAKAAAAKWCAACGC-NH2; linker 12-15-17 via TBMB) came in with a helicity of 65%.

Compound `CC(=O)N[C@@H](C)C(=O)N[C@@H](C)C(=O)N[C@@H](C)C(=O)N[C@@H](C)C(=O)N[C@@H](CCCCN)C(=O)N[C@@H](Cc1c[nH]c2ccccc12)C(=O)N[C@H]1CSCc2cccc(c2)CSC[C@@H](C(N)=O)NC(=O)CNC(=O)[C@H](C)NC(=O)[C@H](C)NC(=O)[C@H](C)NC1=O` (Ac-AAAAKWCAAAGC-NH2; linker 7-12 via mXylylene) showed a helicity of 34%.

As to `CC(=O)N[C@@H](C)C(=O)N[C@@H](C)C(=O)N[C@@H](C)C(=O)N[C@@H](C)C(=O)N[C@@H](CCCCN)C(=O)N[C@@H](Cc1c[nH]c2ccccc12)C(=O)N[C@H]1CSCc2cccc(c2)CSC[C@@H](C(=O)NCC(=O)N[C@@H](C)C(N)=O)NC(=O)[C@H](C)NC(=O)[C@H](C)NC1=O` (Ac-AAAAKWCAACGA-NH2; linker 7-10 via mXylylene), the helicity stood at 33%.

In the case of `CC(=O)N[C@@H](C)C(=O)N[C@@H](C)C(=O)N[C@@H](C)C(=O)N[C@@H](C)C(=O)N[C@@H](CCCCN)C(=O)N[C@@H](Cc1c[nH]c2ccccc12)C(=O)N[C@H]1CSCc2cc3cc(c2)CSC[C@H](NC(=O)[C@H](C)NC(=O)[C@H](C)NC1=O)C(=O)NCC(=O)N[C@H](C(N)=O)CSC3` (Ac-AAAAKWCAACGC-NH2; linker 7-10-12 via TBMB), the helicity is 59%.

As for `CC[C@H](C)[C@@H]1NC(=O)[C@@H](NC(=O)[C@H](C)NC(=O)[C@H](CC(C)C)NC(=O)[C@H](CCC(N)=O)NC(=O)[C@H](CCCNC(=N)N)NC(=O)[C@H](C)NC(=O)[C@@H](NC(=O)[C@H](CCC(N)=O)NC(C)=O)C(C)C)CSCc2cc3cc(c2)CSC[C@H](NC(=O)[C@H](Cc2ccc(O)cc2)NC1=O)C(=O)NCC(=O)N[C@H](C(N)=O)CSC3` (Ac-QVARQLACIYCGC-NH2; linker 8-11-13 via TBMB), the helicity stood at 38%.

`CC[C@H](C)[C@H](NC(=O)[C@H](CCCNC(=N)N)NC(C)=O)C(=O)N[C@@H](C)C(=O)N[C@@H](CCCNC(=N)N)C(=O)N[C@@H](CC(C)C)C(=O)N[C@@H](CCC(=O)O)C(=O)N[C@@H](CCC(=O)O)C(=O)N[C@H]1CSCc2cc3cc(c2)CSC[C@H](NC(=O)[C@H](CCCCN)NC(=O)[C@H](Cc2ccc(O)cc2)NC1=O)C(=O)NCC(=O)N[C@H](C(N)=O)CSC3` (Ac-RIARLEECYKCGC-NH2; linker 8-11-13 via TBMB) had a helicity of 48%.

On to Ac-AAAAKAAAAKAAAAKAW-NH2, for which the helicity worked out at 48%.

Compound Ac-AAAAKAAAAKAW-NH2 yielded a helicity of 17%.

As to Ac-QVARQLAEIY-NH2, the helicity is 8%.

Consider Ac-RIARLEEKYK-NH2, for which the helicity was determined as 17%.

As to Ac-WAAAKAAAAKALAAIGV-NH2, the helicity was determined as 37%.

For the compound Ac-WAAAKAAAAKALAALGF-NH2, the helicity came out at 38%.

Ac-WAAAKAAAAKALAALGI-NH2 showed a helicity of 52%.

As for Ac-WAAAKAAAAKALAALGL-NH2, the helicity came to 54%.

Ac-WAAAKAAAAKALAALGV-NH2: the helicity came to 44%.

For the compound Ac-WAAAKAAAAKALAALGW-NH2, the helicity was 44%.

As for Ac-WAAAKAAAAKALAALGY-NH2, the helicity was found to be 45%.
